PMC3093654

Biological target: alpha-thrombin (UniProt P00734;P00734 328-363;364-622)
Test: SPR imaging

## AGTCCGTGGTAGGGCAGGTTGGGGTGACTTTTTTTTTTTTTTTT (ssDNA, 3'-NH2, surface-attached to pGlu-MUAM on gold) [Da thrombin aptamer]
  binding result: binds
